Biological target: PD-1 from the PD-1 effector cells (UniProt Q15116 25-288, limits assumed)
Assay: cell-based or functional assay

PD-1 from the PD-1 effector cells, sequence (Q15116 25-288 limits assumed): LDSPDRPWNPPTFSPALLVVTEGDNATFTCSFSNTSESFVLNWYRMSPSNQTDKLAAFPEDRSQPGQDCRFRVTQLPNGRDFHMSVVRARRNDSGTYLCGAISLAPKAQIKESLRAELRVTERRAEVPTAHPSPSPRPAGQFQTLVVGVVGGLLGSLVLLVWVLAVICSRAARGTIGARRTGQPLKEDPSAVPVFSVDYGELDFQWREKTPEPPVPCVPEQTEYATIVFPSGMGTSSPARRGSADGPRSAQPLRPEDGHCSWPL

Binder	EC50 (nM), fold induction of luminescence in the PD-1/PD-L1 Blockade Bioassay
UCM2 (other) heavy 1: QVQLVQSGVEVKKPGASVKVSCKASGYTFTNYYMYWVRQAPGQGLEWMGGINPSNGGTNFNEKFKNRVTLTTDSSTTTAYMELKSLQFDDTAVYYCARRDYRFDMGFDYWGQGTTVTVSSASTKGPSVFPLAPSSKSTSGGTAALGCLVKDYFPEPVTVSWNSGALTSGVHTFPAVLQSSGLYSLSSVVTVPSSSLGTQTYICNVNHKPSNTKVDKKVEPKSCDKTHTCPPCPAPELLGGPSVFLFPPKPKDTLMISRTPEVTCVVVDVSHEDPEVKFNWYVDGVEVHNAKTKPREEQYASTYRVVSVLTVLHQDWLNGKEYKCKVSNKALPAPIEKTISKAKGQPREPQVYTLPPCRDELTKNQVSLWCLVKGFYPSDIAVEWESNGQPENNYKTTPPVLDSDGSFFLYSKLTVDKSRWQQGNVFSCSVMHEALHNRFTQKSLSLSPGGGSSPPGGGSSGGGSGPAPTSSSTKKTQLQLEHLLLDLQMILNGINNYKNPKLTAMLTAKFAMPKKATELKHLQCLEEALKPLEEVLNLAQSKNFHLRPRDLISNINVIVLELKGSETTFMCEYADETATIVEFLNRWITFAQSIISTLT heavy 2: QVQLVQSGVEVKKPGASVKVSCKASGYTFTNYYMYWVRQAPGQGLEWMGGINPSNGGTNFNEKFKNRVTLTTDSSTTTAYMELKSLQFDDTAVYYCARRDYRFDMGFDYWGQGTTVTVSSASTKGPSVFPLAPSSKSTSGGTAALGCLVKDYFPEPVTVSWNSGALTSGVHTFPAVLQSSGLYSLSSVVTVPSSSLGTQTYICNVNHKPSNTKVDKKVEPKSCDKTHTCPPCPAPELLGGPSVFLFPPKPKDTLMISRTPEVTCVVVDVSHEDPEVKFNWYVDGVEVHNAKTKPREEQYASTYRVVSVLTVLHQDWLNGKEYKCKVSNKALPAPIEKTISKAKGQPREPQVCTLPPSRDELTKNQVSLSCAVKGFYPSDIAVEWESNGQPENNYKTTPPVLDSDGSFFLVSKLTVDKSRWQQGNVFSCSVMHEALHNHYTQKSLSLPLGLGGSSGSGGSGGGSGSGGGEVQLVESGGGLVQPGGSLRLSCAASGSIFSINVMGWYRQAPGKQRELVAAISSGGSTNYADSVKGRFTISRDNAKNTVYLQMNSLKPEDTAVYYCMYASSWYEDETDYWGQGTQVTVSS light: EIVLTQSPATLSLSPGERATLSCRASKGVSTSGYSYLHWYQQKPGQAPRLLIYLASYLESGVPARFSGSGSGTDFTLTISSLEPEDFAVYYCQHSRDLPLTFGGGTKVEIKRTVAAPSVFIFPPSDEQLKSGTASVVCLLNNFYPREAKVQWKVDNALQSGNSQESVTEQDSKDSTYSLSSTLTLSKADYEKHKVYACEVTHQGLSSPVTKSFNRGEC	0.84 nM
UCM4 (other) heavy 1: QVQLVQSGVEVKKPGASVKVSCKASGYTFTNYYMYWVRQAPGQGLEWMGGINPSNGGTNFNEKFKNRVTLTTDSSTTTAYMELKSLQFDDTAVYYCARRDYRFDMGFDYWGQGTTVTVSSASTKGPSVFPLAPSSKSTSGGTAALGCLVKDYFPEPVTVSWNSGALTSGVHTFPAVLQSSGLYSLSSVVTVPSSSLGTQTYICNVNHKPSNTKVDKKVEPKSCDKTHTCPPCPAPELLGGPSVFLFPPKPKDTLMISRTPEVTCVVVDVSHEDPEVKFNWYVDGVEVHNAKTKPREEQYASTYRVVSVLTVLHQDWLNGKEYKCKVSNKALPAPIEKTISKAKGQPREPQVYTLPPCRDELTKNQVSLWCLVKGFYPSDIAVEWESNGQPENNYKTTPPVLDSDGSFFLYSKLTVDKSRWQQGNVFSCSVMHEALHNRFTQKSLSLSPGGGSSPPGGGSSGGGSGPAPTSSSTKKTQLQLEHLLLDLQMILNGINNYKNPKLTAMLTAKFAMPKKATELKHLQCLEEALKPLEEVLNLAQSKNFHLRPRDLISNINVIVLELKGSETTFMCEYADETATIVEFLNRWITFAQSIISTLT heavy 2: QVQLVQSGVEVKKPGASVKVSCKASGYTFTNYYMYWVRQAPGQGLEWMGGINPSNGGTNFNEKFKNRVTLTTDSSTTTAYMELKSLQFDDTAVYYCARRDYRFDMGFDYWGQGTTVTVSSASTKGPSVFPLAPSSKSTSGGTAALGCLVKDYFPEPVTVSWNSGALTSGVHTFPAVLQSSGLYSLSSVVTVPSSSLGTQTYICNVNHKPSNTKVDKKVEPKSCDKTHTCPPCPAPELLGGPSVFLFPPKPKDTLMISRTPEVTCVVVDVSHEDPEVKFNWYVDGVEVHNAKTKPREEQYASTYRVVSVLTVLHQDWLNGKEYKCKVSNKALPAPIEKTISKAKGQPREPQVCTLPPSRDELTKNQVSLSCAVKGFYPSDIAVEWESNGQPENNYKTTPPVLDSDGSFFLVSKLTVDKSRWQQGNVFSCSVMHEALHNHYTQKMPYDLYHPGGSSGSGGSGGGSGSGGGEVQLVESGGGLVQPGGSLRLSCAASGSIFSINVMGWYRQAPGKQRELVAAISSGGSTNYADSVKGRFTISRDNAKNTVYLQMNSLKPEDTAVYYCMYASSWYEDETDYWGQGTQVTVSS light: EIVLTQSPATLSLSPGERATLSCRASKGVSTSGYSYLHWYQQKPGQAPRLLIYLASYLESGVPARFSGSGSGTDFTLTISSLEPEDFAVYYCQHSRDLPLTFGGGTKVEIKRTVAAPSVFIFPPSDEQLKSGTASVVCLLNNFYPREAKVQWKVDNALQSGNSQESVTEQDSKDSTYSLSSTLTLSKADYEKHKVYACEVTHQGLSSPVTKSFNRGEC	1.28 nM

Further lines, results first:

EC50 (nM), fold induction of luminescence in the PD-1/PD-L1 Blockade Bioassay	Binder
1.36 nM	UCM7 (other) heavy 1: QVQLVQSGVEVKKPGASVKVSCKASGYTFTNYYMYWVRQAPGQGLEWMGGINPSNGGTNFNEKFKNRVTLTTDSSTTTAYMELKSLQFDDTAVYYCARRDYRFDMGFDYWGQGTTVTVSSASTKGPSVFPLAPSSKSTSGGTAALGCLVKDYFPEPVTVSWNSGALTSGVHTFPAVLQSSGLYSLSSVVTVPSSSLGTQTYICNVNHKPSNTKVDKKVEPKSCDKTHTCPPCPAPELLGGPSVFLFPPKPKDTLMISRTPEVTCVVVDVSHEDPEVKFNWYVDGVEVHNAKTKPREEQYASTYRVVSVLTVLHQDWLNGKEYKCKVSNKALPAPIEKTISKAKGQPREPQVYTLPPCRDELTKNQVSLWCLVKGFYPSDIAVEWESNGQPENNYKTTPPVLDSDGSFFLYSKLTVDKSRWQQGNVFSCSVMHEALHNRFTQKSLSLSPGGGSSPPGGGSSGGGSGPAPTSSSTKKTQLQLEHLLLDLQMILNGINNYKNPKLTAMLTAKFAMPKKATELKHLQCLEEALKPLEEVLNLAQSKNFHLRPRDLISNINVIVLELKGSETTFMCEYADETATIVEFLNRWITFAQSIISTLT heavy 2: QVQLVQSGVEVKKPGASVKVSCKASGYTFTNYYMYWVRQAPGQGLEWMGGINPSNGGTNFNEKFKNRVTLTTDSSTTTAYMELKSLQFDDTAVYYCARRDYRFDMGFDYWGQGTTVTVSSASTKGPSVFPLAPSSKSTSGGTAALGCLVKDYFPEPVTVSWNSGALTSGVHTFPAVLQSSGLYSLSSVVTVPSSSLGTQTYICNVNHKPSNTKVDKKVEPKSCDKTHTCPPCPAPELLGGPSVFLFPPKPKDTLMISRTPEVTCVVVDVSHEDPEVKFNWYVDGVEVHNAKTKPREEQYASTYRVVSVLTVLHQDWLNGKEYKCKVSNKALPAPIEKTISKAKGQPREPQVCTLPPSRDELTKNQVSLSCAVKGFYPSDIAVEWESNGQPENNYKTTPPVLDSDGSFFLVSKLTVDKSRWQQGNVFSCSVMHEALHNHYTQKSLGGPLGLGGSSGSGGSGGGSGSGGGEVQLVESGGGLVQPGGSLRLSCAASGSIFSINVMGWYRQAPGKQRELVAAISSGGSTNYADSVKGRFTISRDNAKNTVYLQMNSLKPEDTAVYYCMYASSWYEDETDYWGQGTQVTVSS light: EIVLTQSPATLSLSPGERATLSCRASKGVSTSGYSYLHWYQQKPGQAPRLLIYLASYLESGVPARFSGSGSGTDFTLTISSLEPEDFAVYYCQHSRDLPLTFGGGTKVEIKRTVAAPSVFIFPPSDEQLKSGTASVVCLLNNFYPREAKVQWKVDNALQSGNSQESVTEQDSKDSTYSLSSTLTLSKADYEKHKVYACEVTHQGLSSPVTKSFNRGEC
1.09 nM	UCM8 (other) heavy 1: QVQLVQSGVEVKKPGASVKVSCKASGYTFTNYYMYWVRQAPGQGLEWMGGINPSNGGTNFNEKFKNRVTLTTDSSTTTAYMELKSLQFDDTAVYYCARRDYRFDMGFDYWGQGTTVTVSSASTKGPSVFPLAPSSKSTSGGTAALGCLVKDYFPEPVTVSWNSGALTSGVHTFPAVLQSSGLYSLSSVVTVPSSSLGTQTYICNVNHKPSNTKVDKKVEPKSCDKTHTCPPCPAPELLGGPSVFLFPPKPKDTLMISRTPEVTCVVVDVSHEDPEVKFNWYVDGVEVHNAKTKPREEQYASTYRVVSVLTVLHQDWLNGKEYKCKVSNKALPAPIEKTISKAKGQPREPQVYTLPPCRDELTKNQVSLWCLVKGFYPSDIAVEWESNGQPENNYKTTPPVLDSDGSFFLYSKLTVDKSRWQQGNVFSCSVMHEALHNRFTQKSLSLSPGGGSSPPGGGSSGGGSGPAPTSSSTKKTQLQLEHLLLDLQMILNGINNYKNPKLTAMLTAKFAMPKKATELKHLQCLEEALKPLEEVLNLAQSKNFHLRPRDLISNINVIVLELKGSETTFMCEYADETATIVEFLNRWITFAQSIISTLT heavy 2: QVQLVQSGVEVKKPGASVKVSCKASGYTFTNYYMYWVRQAPGQGLEWMGGINPSNGGTNFNEKFKNRVTLTTDSSTTTAYMELKSLQFDDTAVYYCARRDYRFDMGFDYWGQGTTVTVSSASTKGPSVFPLAPSSKSTSGGTAALGCLVKDYFPEPVTVSWNSGALTSGVHTFPAVLQSSGLYSLSSVVTVPSSSLGTQTYICNVNHKPSNTKVDKKVEPKSCDKTHTCPPCPAPELLGGPSVFLFPPKPKDTLMISRTPEVTCVVVDVSHEDPEVKFNWYVDGVEVHNAKTKPREEQYASTYRVVSVLTVLHQDWLNGKEYKCKVSNKALPAPIEKTISKAKGQPREPQVCTLPPSRDELTKNQVSLSCAVKGFYPSDIAVEWESNGQPENNYKTTPPVLDSDGSFFLVSKLTVDKSRWQQGNVFSCSVMHEALHNHYTQKSLSLPLGLGGSSGSGGSGGGSGSGGGSGGSGGEVQLVESGGGLVQPGGSLRLSCAASGSIFSINVMGWYRQAPGKQRELVAAISSGGSTNYADSVKGRFTISRDNAKNTVYLQMNSLKPEDTAVYYCMYASSWYEDETDYWGQGTQVTVSS light: EIVLTQSPATLSLSPGERATLSCRASKGVSTSGYSYLHWYQQKPGQAPRLLIYLASYLESGVPARFSGSGSGTDFTLTISSLEPEDFAVYYCQHSRDLPLTFGGGTKVEIKRTVAAPSVFIFPPSDEQLKSGTASVVCLLNNFYPREAKVQWKVDNALQSGNSQESVTEQDSKDSTYSLSSTLTLSKADYEKHKVYACEVTHQGLSSPVTKSFNRGEC

— patent US20250250314A1 (XILIO DEVELOPMENT, published 2025)
